Measurements: patent US20120264231A1, “ASSAY FOR ORAI CALCIUM CHANNEL REGULATORS” (IMMUNE DISEASE INSTITUTE, INC., priority 2009, published 2012)

Biological target: T1, ORAI1 (R91W) (Homo sapiens, UniProt Q96D31, R91W)
T1 construct: the ORAI functional fragment is ORAI1 (65-301), ORAI1 (65-87), or full length ORAI1; made in house; host or cells: S. cerevisiae NY17 (sec6-4), isolated secretory vesicles
Experiment: Cameleon D3 cpV intravesicular Ca^2+ assay, vesicles with ORAI1 (R91W)
Format: biochemical
Conditions: vesicles containing ORAI1 (R91W)
Excerpt: Confirmation that Ca^2+ release from the vesicles was due to gating of the ORAI 1 channel was sought. […] It was concluded that the in vitro assay reflects STIM 1-dependent gating of ORAI1 and Ca^2+ flux through the ORAI1 channel pore.
The yeast expression vector pBEVY-GU60 allows for simultaneous expression of two transgenes by means of the bidirectional GAL1-10 promoter. The FRET-based calcium sensors D3 cpV and D4 cpV53 were fused at the N-terminus with the S. cerevisiae α-mating factor secretion signal (Bitter, G. A., et al., Proc Natl Acad Sci USA 81, 5330-5334 (1984)), which directs proteins into the secretory pathway, and introduced into pBEVY-GU in the following way. Vector pPIC9 (Invitrogen) served as template for PCR amplification of the α-mating factor secretion signal (5′ primer: […] (SEQ ID NO: 2); 3′ primer: […] (SEQ ID NO: 3)), introducing an EcoRI site at the 5′ end, and a sequence complementary to that encoding the N-terminus of the calcium sensor at the 3′ end. DNA encoding the N-terminal portion of the calcium sensor D3 cpV, comprising CFP, was amplified by PCR (5′ primer: […] (SEQ ID NO: 4); 3′ primer: […] (SEQ ID NO: 5)), introducing an SphI site followed by a stop codon and a NotI site at the 3′ end of the resulting DNA fragment. […]

T1 sequence (Q96D31 2-301 R91W): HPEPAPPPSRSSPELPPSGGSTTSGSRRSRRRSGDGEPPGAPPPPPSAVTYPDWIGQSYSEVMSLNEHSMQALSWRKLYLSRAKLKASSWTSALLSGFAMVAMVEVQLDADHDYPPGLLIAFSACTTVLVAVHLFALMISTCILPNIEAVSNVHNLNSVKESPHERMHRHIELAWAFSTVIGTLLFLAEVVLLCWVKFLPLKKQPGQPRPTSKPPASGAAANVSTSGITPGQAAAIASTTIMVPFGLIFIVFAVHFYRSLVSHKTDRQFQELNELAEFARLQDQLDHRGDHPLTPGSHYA

Substance: STIM1^CT: cytoplasmic region of STIM1, mouse residues 233-685, His-tagged recombinant protein expressed in E coli
- Ca^2+ release from vesicles: did not elicit Ca^2+ release
